Source: IntAct's records for PubMed 27754869

B1: Natural cytotoxicity triggering receptor 3 (Homo sapiens), O14931 (parent)
chain: MAWMLLLILIMVHPGSCALWVSQPPEIRTLEGSSAFLPCSFNASQGRLAIGSVTWFRDEVVPGKEVRNGTPEFRGRLAPLASSRFLHDHQAELHIRDVRGHDASIYVCRVEVLGLGVGTGNGTRLVVEKEHPQLGAGTVLLLRAGFYAVSFLSVAVGSTVYYQGKCLTWKGPRRQLPAVVPAPLPPPCGSSAHLLPPVPGG
B2: Natural cytotoxicity triggering receptor 3 (Homo sapiens), O14931 (parent)
chain: B1 chain
partner: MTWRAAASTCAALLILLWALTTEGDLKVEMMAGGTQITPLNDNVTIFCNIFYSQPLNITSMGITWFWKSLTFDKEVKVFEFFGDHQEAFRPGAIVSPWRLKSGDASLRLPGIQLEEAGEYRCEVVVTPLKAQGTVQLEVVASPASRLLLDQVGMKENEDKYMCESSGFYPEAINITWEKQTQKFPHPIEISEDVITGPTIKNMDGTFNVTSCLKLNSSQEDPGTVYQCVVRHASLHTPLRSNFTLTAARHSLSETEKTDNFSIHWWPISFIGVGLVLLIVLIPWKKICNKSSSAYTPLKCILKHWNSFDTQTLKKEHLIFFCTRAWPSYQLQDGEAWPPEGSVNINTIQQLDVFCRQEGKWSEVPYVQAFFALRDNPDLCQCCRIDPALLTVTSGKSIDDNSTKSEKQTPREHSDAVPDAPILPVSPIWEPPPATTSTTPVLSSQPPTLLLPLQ

Variants of: B1
Conditions: with BAG6, P46379-2
Sequence of BAG6, P46379-2 (P46379 other isoform, or with tags, fused parts or gaps): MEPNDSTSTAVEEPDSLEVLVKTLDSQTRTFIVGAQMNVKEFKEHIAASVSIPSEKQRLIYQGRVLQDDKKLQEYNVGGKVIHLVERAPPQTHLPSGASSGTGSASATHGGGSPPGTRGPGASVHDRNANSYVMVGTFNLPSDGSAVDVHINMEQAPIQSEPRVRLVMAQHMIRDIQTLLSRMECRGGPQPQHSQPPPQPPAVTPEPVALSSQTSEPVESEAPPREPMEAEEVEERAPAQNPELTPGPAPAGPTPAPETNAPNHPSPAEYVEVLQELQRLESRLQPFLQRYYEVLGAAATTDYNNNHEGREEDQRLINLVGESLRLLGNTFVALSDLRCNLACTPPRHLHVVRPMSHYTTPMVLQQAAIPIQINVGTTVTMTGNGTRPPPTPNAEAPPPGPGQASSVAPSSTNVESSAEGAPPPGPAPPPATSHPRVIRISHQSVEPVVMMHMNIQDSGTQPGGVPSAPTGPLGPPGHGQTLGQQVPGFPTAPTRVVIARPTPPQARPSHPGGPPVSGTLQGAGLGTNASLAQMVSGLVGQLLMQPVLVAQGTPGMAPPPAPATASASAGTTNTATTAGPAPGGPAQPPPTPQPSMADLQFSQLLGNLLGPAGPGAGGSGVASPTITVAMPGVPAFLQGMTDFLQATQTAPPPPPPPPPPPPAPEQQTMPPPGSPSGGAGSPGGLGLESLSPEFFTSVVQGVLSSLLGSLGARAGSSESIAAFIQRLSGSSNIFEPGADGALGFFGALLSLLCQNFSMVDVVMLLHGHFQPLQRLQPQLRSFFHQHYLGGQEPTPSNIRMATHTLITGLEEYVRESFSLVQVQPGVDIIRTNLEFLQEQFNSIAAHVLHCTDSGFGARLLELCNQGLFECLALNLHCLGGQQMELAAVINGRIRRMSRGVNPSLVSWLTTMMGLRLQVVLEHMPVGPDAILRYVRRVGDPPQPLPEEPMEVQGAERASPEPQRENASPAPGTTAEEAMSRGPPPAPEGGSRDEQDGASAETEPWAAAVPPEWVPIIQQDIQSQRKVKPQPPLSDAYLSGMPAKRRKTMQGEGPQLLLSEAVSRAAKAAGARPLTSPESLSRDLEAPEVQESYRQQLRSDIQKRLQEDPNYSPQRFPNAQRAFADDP

Variant	effect of a mutation on the interaction
MAWMLLLILIMVHPGSCALWVSQPPEIRTLEGSSAFLPCSFNASQGRLAIGSVTWFRDEVVPGKEVRNGTPEFRGRLAPLASSRFLHDHQAELHIRDVRGHDASIYVCRVEVLGLGVGTGNGTRLVVEKEHPQLGAGTVLLARAGFYAVSFLSVAVGSTVYYQGKCLTWKGPRRQLPAVVPAPLPPPCGSSAHLLPPVPGG [L142A]	decreasing interaction strength
MAWMLLLILIMVHPGSCALWVSQPPEIRTLEGSSAFLPCSFNASQGRLAIGSVTWFRDEVVPGKEVRNGTPEFRGRLAPLASSRFLHDHQAELHIRDVRGHDASIYVCRVEVLGLGVGTGNGTRLVVEKEAPQLGAGTVLLLRAGFYAVSFLSVAVGSTVYYQGKCLTWKGPRRQLPAVVPAPLPPPCGSSAHLLPPVPGG [H131A]	with no effect
MAWMLLLILIMVHPGSCALWVSQPPEIRTLEGSSAFLPCSFNASQGRLAIGSVTWFRDEVVPGKEVRNGTPEFRGRLAPLASSRFLHDHQAELHIRDVRGHDASIYVCRVEVLGLGVGTGNGTRLVVEKEHPQLGAATVLLLRAGFYAVSFLSVAVGSTVYYQGKCLTWKGPRRQLPAVVPAPLPPPCGSSAHLLPPVPGG [G137A]	with no effect
MAWMLLLILIMVHPGSCALWVSQPPEIRTLEGSSAFLPCSFNASQGRLAIGSVTWFRDEVVPGKEVRNGTPEFRGRLAPLASSRFLHDHQAELHIRDVRGHDASIYVCRVEVLGLGVGTGNGTRLVVEKEHAQLGAGTVLLLRAGFYAVSFLSVAVGSTVYYQGKCLTWKGPRRQLPAVVPAPLPPPCGSSAHLLPPVPGG [P132A]	with no effect
MAWMLLLILIMVHPGSCALWVSQPPEIRTLEGSSAFLPCSFNASQGRLAIGSVTWFRDEVVPGKEVRNGTPEFRGRLAPLASSRFLHDHQAELHIRDVRGHDASIYVCRVEVLGLGVGTGNGTRLVVEKEHPQAGAGTVLLLRAGFYAVSFLSVAVGSTVYYQGKCLTWKGPRRQLPAVVPAPLPPPCGSSAHLLPPVPGG [L134A]	with no effect
MAWMLLLILIMVHPGSCALWVSQPPEIRTLEGSSAFLPCSFNASQGRLAIGSVTWFRDEVVPGKEVRNGTPEFRGRLAPLASSRFLHDHQAELHIRDVRGHDASIYVCRVEVLGLGVGTGNGTRLVVEKEHPQLGAGTALLLRAGFYAVSFLSVAVGSTVYYQGKCLTWKGPRRQLPAVVPAPLPPPCGSSAHLLPPVPGG [V139A]	with no effect
MAWMLLLILIMVHPGSCALWVSQPPEIRTLEGSSAFLPCSFNASQGRLAIGSVTWFRDEVVPGKEVRNGTPEFRGRLAPLASSRFLHDHQAELHIRDVRGHDASIYVCRVEVLGLGVGTGNGTRLVVEAEHPQLGAGTVLLLRAGFYAVSFLSVAVGSTVYYQGKCLTWKGPRRQLPAVVPAPLPPPCGSSAHLLPPVPGG [K129A]	decreasing interaction strength
MAWMLLLILIMVHPGSCALWVSQPPEIRTLEGSSAFLPCSFNASQGRLAIGSVTWFRDEVVPGKEVRNGTPEFRGRLAPLASSRFLHDHQAELHIRDVRGHDASIYVCRVEVLGLGVGTGNGTRLVVEKEHPQLGAGAVLLLRAGFYAVSFLSVAVGSTVYYQGKCLTWKGPRRQLPAVVPAPLPPPCGSSAHLLPPVPGG [T138A]	increasing interaction strength
MAWMLLLILIMVHPGSCALWVSQPPEIRTLEGSSAFLPCSFNASQGRLAIGSVTWFRDEVVPGKEVRNGTPEFRGRLAPLASSRFLHDHQAELHIRDVRGHDASIYVCRVEVLGLGVGTGNGTRLVVEKEHPQLGAGTVLALRAGFYAVSFLSVAVGSTVYYQGKCLTWKGPRRQLPAVVPAPLPPPCGSSAHLLPPVPGG [L141A]	decreasing interaction strength
MAWMLLLILIMVHPGSCALWVSQPPEIRTLEGSSAFLPCSFNASQGRLAIGSVTWFRDEVVPGKEVRNGTPEFRGRLAPLASSRFLHDHQAELHIRDVRGHDASIYVCRVEVLGLGVGTGNGTRLVVEKAHPQLGAGTVLLLRAGFYAVSFLSVAVGSTVYYQGKCLTWKGPRRQLPAVVPAPLPPPCGSSAHLLPPVPGG [E130A]	increasing interaction strength
MAWMLLLILIMVHPGSCALWVSQPPEIRTLEGSSAFLPCSFNASQGRLAIGSVTWFRDEVVPGKEVRNGTPEFRGRLAPLASSRFLHDHQAELHIRDVRGHDASIYVCRVEVLGLGVGTGNGTRLVVEKEHPQLGAGTVALLRAGFYAVSFLSVAVGSTVYYQGKCLTWKGPRRQLPAVVPAPLPPPCGSSAHLLPPVPGG [L140A]	with no effect
MAWMLLLILIMVHPGSCALWVSQPPEIRTLEGSSAFLPCSFNASQGRLAIGSVTWFRDEVVPGKEVRNGTPEFRGRLAPLASSRFLHDHQAELHIRDVRGHDASIYVCRVEVLGLGVGTGNGTRLVVEKEHPQLAAGTVLLLRAGFYAVSFLSVAVGSTVYYQGKCLTWKGPRRQLPAVVPAPLPPPCGSSAHLLPPVPGG [G135A]	increasing interaction strength
MAWMLLLILIMVHPGSCALWVSQPPEIRTLEGSSAFLPCSFNASQGRLAIGSVTWFRDEVVPGKEVRNGTPEFRGRLAPLASSRFLHDHQAELHIRDVRGHDASIYVCRVEVLGLGVGTGNGTRLVVEKEHPALGAGTVLLLRAGFYAVSFLSVAVGSTVYYQGKCLTWKGPRRQLPAVVPAPLPPPCGSSAHLLPPVPGG [Q133A]	with no effect
MAWMLLLILIMVHPGSCALWVSQPPEIRTLEGSSAFLPCSFNASQGRLAIGSVTWFRDEVVPGKEVRNGTPEFRGRLAPLASSRFLHDHQAELHIRDVRGHDASIYVCRVEVLGLGVGTGNGTRLVVEKEHPQLGAGTVLLLAAGFYAVSFLSVAVGSTVYYQGKCLTWKGPRRQLPAVVPAPLPPPCGSSAHLLPPVPGG [R143A]	decreasing interaction strength

Variants of: B2
Conditions: with nr3l1_human NCR3LG1, Q68D85

Variant	effect of a mutation on the interaction
MAWMLLLILIMVHPGSCALWVSQPPEIRTLEGSSAFLPCSFNASQGRLAIGSVTWFRDEVVPGKEVRNGTPEFRGRLAPLASSRFLHDHQAELHIRDVRGHDASIYVCRVEVLGLGVGTGNGTRLVVEKEHPQLGAATVLLLRAGFYAVSFLSVAVGSTVYYQGKCLTWKGPRRQLPAVVPAPLPPPCGSSAHLLPPVPGG [G137A]	with no effect
MAWMLLLILIMVHPGSCALWVSQPPEIRTLEGSSAFLPCSFNASQGRLAIGSVTWFRDEVVPGKEVRNGTPEFRGRLAPLASSRFLHDHQAELHIRDVRGHDASIYVCRVEVLGLGVGTGNGTRLVVEKEHAQLGAGTVLLLRAGFYAVSFLSVAVGSTVYYQGKCLTWKGPRRQLPAVVPAPLPPPCGSSAHLLPPVPGG [P132A]	with no effect
MAWMLLLILIMVHPGSCALWVSQPPEIRTLEGSSAFLPCSFNASQGRLAIGSVTWFRDEVVPGKEVRNGTPEFRGRLAPLASSRFLHDHQAELHIRDVRGHDASIYVCRVEVLGLGVGTGNGTRLVVEKEHPQLGAGTVLLLAAGFYAVSFLSVAVGSTVYYQGKCLTWKGPRRQLPAVVPAPLPPPCGSSAHLLPPVPGG [R143A]	decreasing interaction strength
MAWMLLLILIMVHPGSCALWVSQPPEIRTLEGSSAFLPCSFNASQGRLAIGSVTWFRDEVVPGKEVRNGTPEFRGRLAPLASSRFLHDHQAELHIRDVRGHDASIYVCRVEVLGLGVGTGNGTRLVVEKEHPQLGAGTVALLRAGFYAVSFLSVAVGSTVYYQGKCLTWKGPRRQLPAVVPAPLPPPCGSSAHLLPPVPGG [L140A]	increasing interaction strength
MAWMLLLILIMVHPGSCALWVSQPPEIRTLEGSSAFLPCSFNASQGRLAIGSVTWFRDEVVPGKEVRNGTPEFRGRLAPLASSRFLHDHQAELHIRDVRGHDASIYVCRVEVLGLGVGTGNGTRLVVEKEHPQLGAGTVLLARAGFYAVSFLSVAVGSTVYYQGKCLTWKGPRRQLPAVVPAPLPPPCGSSAHLLPPVPGG [L142A]	increasing interaction strength
MAWMLLLILIMVHPGSCALWVSQPPEIRTLEGSSAFLPCSFNASQGRLAIGSVTWFRDEVVPGKEVRNGTPEFRGRLAPLASSRFLHDHQAELHIRDVRGHDASIYVCRVEVLGLGVGTGNGTRLVVEKEHPQLGAGTVLALRAGFYAVSFLSVAVGSTVYYQGKCLTWKGPRRQLPAVVPAPLPPPCGSSAHLLPPVPGG [L141A]	with no effect
MAWMLLLILIMVHPGSCALWVSQPPEIRTLEGSSAFLPCSFNASQGRLAIGSVTWFRDEVVPGKEVRNGTPEFRGRLAPLASSRFLHDHQAELHIRDVRGHDASIYVCRVEVLGLGVGTGNGTRLVVEKEHPQAGAGTVLLLRAGFYAVSFLSVAVGSTVYYQGKCLTWKGPRRQLPAVVPAPLPPPCGSSAHLLPPVPGG [L134A]	decreasing interaction strength
MAWMLLLILIMVHPGSCALWVSQPPEIRTLEGSSAFLPCSFNASQGRLAIGSVTWFRDEVVPGKEVRNGTPEFRGRLAPLASSRFLHDHQAELHIRDVRGHDASIYVCRVEVLGLGVGTGNGTRLVVEKEHPALGAGTVLLLRAGFYAVSFLSVAVGSTVYYQGKCLTWKGPRRQLPAVVPAPLPPPCGSSAHLLPPVPGG [Q133A]	decreasing interaction strength
MAWMLLLILIMVHPGSCALWVSQPPEIRTLEGSSAFLPCSFNASQGRLAIGSVTWFRDEVVPGKEVRNGTPEFRGRLAPLASSRFLHDHQAELHIRDVRGHDASIYVCRVEVLGLGVGTGNGTRLVVEAEHPQLGAGTVLLLRAGFYAVSFLSVAVGSTVYYQGKCLTWKGPRRQLPAVVPAPLPPPCGSSAHLLPPVPGG [K129A]	decreasing interaction strength
MAWMLLLILIMVHPGSCALWVSQPPEIRTLEGSSAFLPCSFNASQGRLAIGSVTWFRDEVVPGKEVRNGTPEFRGRLAPLASSRFLHDHQAELHIRDVRGHDASIYVCRVEVLGLGVGTGNGTRLVVEKEHPQLGAGAVLLLRAGFYAVSFLSVAVGSTVYYQGKCLTWKGPRRQLPAVVPAPLPPPCGSSAHLLPPVPGG [T138A]	decreasing interaction strength
MAWMLLLILIMVHPGSCALWVSQPPEIRTLEGSSAFLPCSFNASQGRLAIGSVTWFRDEVVPGKEVRNGTPEFRGRLAPLASSRFLHDHQAELHIRDVRGHDASIYVCRVEVLGLGVGTGNGTRLVVEKEAPQLGAGTVLLLRAGFYAVSFLSVAVGSTVYYQGKCLTWKGPRRQLPAVVPAPLPPPCGSSAHLLPPVPGG [H131A]	decreasing interaction strength
MAWMLLLILIMVHPGSCALWVSQPPEIRTLEGSSAFLPCSFNASQGRLAIGSVTWFRDEVVPGKEVRNGTPEFRGRLAPLASSRFLHDHQAELHIRDVRGHDASIYVCRVEVLGLGVGTGNGTRLVVEKEHPQLGAGTALLLRAGFYAVSFLSVAVGSTVYYQGKCLTWKGPRRQLPAVVPAPLPPPCGSSAHLLPPVPGG [V139A]	increasing interaction strength
MAWMLLLILIMVHPGSCALWVSQPPEIRTLEGSSAFLPCSFNASQGRLAIGSVTWFRDEVVPGKEVRNGTPEFRGRLAPLASSRFLHDHQAELHIRDVRGHDASIYVCRVEVLGLGVGTGNGTRLVVEKAHPQLGAGTVLLLRAGFYAVSFLSVAVGSTVYYQGKCLTWKGPRRQLPAVVPAPLPPPCGSSAHLLPPVPGG [E130A]	decreasing interaction strength
MAWMLLLILIMVHPGSCALWVSQPPEIRTLEGSSAFLPCSFNASQGRLAIGSVTWFRDEVVPGKEVRNGTPEFRGRLAPLASSRFLHDHQAELHIRDVRGHDASIYVCRVEVLGLGVGTGNGTRLVVEKEHPQLAAGTVLLLRAGFYAVSFLSVAVGSTVYYQGKCLTWKGPRRQLPAVVPAPLPPPCGSSAHLLPPVPGG [G135A]	decreasing interaction strength
